Source: PMC11344771

What was measured:
[1] = biological target: rhodamine-labelled SemD (SemD^Rhod) (Chlamydia pneumoniae); assay: recruitment to giant unilamellar vesicles (confocal microscopy); PS-containing GUVs with bound SemD^Rhod or mutSemD^Rhod (1 µg) and GFP-fused partner (1 µg) in PBS, room temperature, imaged 5-20 min; fluorescence intensity ratio of GUV perimeter to background
[2] = biological target: BR-GBD fused to GFP (BR-GBD_(GFP-His)) (Rattus norvegicus) (UniProt O08816); assay: pull-down; GFP-Trap agarose, BR-GBD_(GFP-His) as bait, equimolar SemDΔAPHHis and Cdc42_(GppNHp) added simultaneously; immunoblot, normalised Elution:FT ratio
[3] = biological target: N-WASP BR-GBD_(142-273) (Rattus norvegicus) (UniProt O08816); assay: SEC-SAXS; Superdex200 increase 10/300 GL, PBS pH 8.5 + 3 % glycerol, 20 °C; 8 mg/ml SemDΔAPH, 10 mg/ml BR-GBD, 8 mg/ml SemDΔAPH + BR-GBD, 3.3 mg/l SemDΔAPH + SNX9-SH3
[4] = biological target: BR-GBD fused to GFP (BR-GBD_(GFP-His)) (Rattus norvegicus) (UniProt O08816); assay: pull-down; GFP-Trap agarose, BR-GBD_(GFP-His) or GFP alone as bait, equimolar test protein, 5 min RT then 30 min 4 °C, washed 6x with 10 mM Tris-HCl, 200 mM NaCl, pH 8.5; immunoblot, Elution:FT ratio normalised to the bait
SNX9-SH3GFP = assay: GUV membrane recruitment assay, confocal fluorescence quantification; details: PS-containing GUVs, read off a plot

BR-GBD fused to GFP (BR-GBD_(GFP-His)) (Rattus norvegicus), sequence (O08816 142-273): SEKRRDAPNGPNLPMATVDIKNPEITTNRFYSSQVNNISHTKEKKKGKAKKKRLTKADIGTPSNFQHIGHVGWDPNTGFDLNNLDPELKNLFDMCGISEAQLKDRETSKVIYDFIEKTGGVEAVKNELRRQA
BR-GBDΔGFP (lacking the BR domain), sequence (O08816 other isoform, or with tags, fused parts or gaps mutant): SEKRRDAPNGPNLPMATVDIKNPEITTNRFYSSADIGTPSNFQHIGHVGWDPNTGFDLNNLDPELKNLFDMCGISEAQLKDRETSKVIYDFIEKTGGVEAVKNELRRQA
N-WASP BR-GBD_(142-273) (Rattus norvegicus), sequence (O08816 142-273): as the sequence (O08816 142-273) above
BR-GBD fused to GFP (BR-GBD_(GFP-His)), sequence (O08816 142-273): as above

BR-GBD fused to GFP (BR-GBD_(GFP-His)) (from UniProt O08816 142-273) (domain or fragment)
fluorescence intensity ratio (GUV perimeter to background) [1]: 44.5 fold

BR-GBDΔGFP (lacking the BR domain) (from UniProt O08816 142-273) (domain or fragment)
fold lower fluorescence intensity ratio than BR-GBDGFP (after 20 min) [1]: > 18 fold

SemDΔAPH_(67-382) (domain or fragment)
normalised Elution:FT ratio (with equimolar Cdc42 (GppNHp)) [2]: 100%
stoichiometry N [3]: 1
normalised Elution:FT ratio [4]: 100%

rhodamine-labelled SemD (SemD^Rhod) R91V; P92A; R94V; P95A; P97V; P98A; P99V; P100A; R117V; P119A; P121V; P122A
response (SNX9-SH3GFP; 5 min, parent: est. 950): 1.1
response (SNX9-SH3GFP; 20 min, parent: est. 830): 1.1
